Data from US20230243836A1.

Experiments:
[1] = target: T1, P-selectin glycoprotein ligand 1 (PSGL-1) expressed on human cells (human) (UniProt Q14242); assay: CAPTIREC (TRICEPS) ligand-receptor capture on naive human T cells, LC-MS/MS; enrichment against the anti-CD28 antibody control
T1 sequence: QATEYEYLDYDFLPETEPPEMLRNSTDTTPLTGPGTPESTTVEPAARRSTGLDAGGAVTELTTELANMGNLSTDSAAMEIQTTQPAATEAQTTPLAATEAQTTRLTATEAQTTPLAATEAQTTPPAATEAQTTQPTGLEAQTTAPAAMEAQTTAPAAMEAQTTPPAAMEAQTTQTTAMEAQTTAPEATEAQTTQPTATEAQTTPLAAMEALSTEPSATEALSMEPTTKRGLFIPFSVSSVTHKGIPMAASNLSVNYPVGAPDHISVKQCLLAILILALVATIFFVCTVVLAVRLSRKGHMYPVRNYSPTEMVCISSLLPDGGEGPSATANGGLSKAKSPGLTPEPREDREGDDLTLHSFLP

[2] = target: VISTA (V-Domain Ig Suppressor of T Cell Activation) expressed on human cells (human) (UniProt Q9H7M9); assay: cell-based or functional assay
Sequence of VISTA (V-Domain Ig Suppressor of T Cell Activation) expressed on human cells (human) (Q9H7M9 33-311): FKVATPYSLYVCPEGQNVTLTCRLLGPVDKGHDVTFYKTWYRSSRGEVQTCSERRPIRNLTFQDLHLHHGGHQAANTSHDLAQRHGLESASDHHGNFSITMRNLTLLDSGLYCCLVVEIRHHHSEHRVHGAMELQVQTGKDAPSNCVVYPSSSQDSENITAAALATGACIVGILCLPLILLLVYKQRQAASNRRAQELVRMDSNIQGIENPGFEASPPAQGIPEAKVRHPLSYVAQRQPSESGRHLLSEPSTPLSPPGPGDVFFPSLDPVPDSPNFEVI

Sequence of VISTA-Fc fusion protein (chain): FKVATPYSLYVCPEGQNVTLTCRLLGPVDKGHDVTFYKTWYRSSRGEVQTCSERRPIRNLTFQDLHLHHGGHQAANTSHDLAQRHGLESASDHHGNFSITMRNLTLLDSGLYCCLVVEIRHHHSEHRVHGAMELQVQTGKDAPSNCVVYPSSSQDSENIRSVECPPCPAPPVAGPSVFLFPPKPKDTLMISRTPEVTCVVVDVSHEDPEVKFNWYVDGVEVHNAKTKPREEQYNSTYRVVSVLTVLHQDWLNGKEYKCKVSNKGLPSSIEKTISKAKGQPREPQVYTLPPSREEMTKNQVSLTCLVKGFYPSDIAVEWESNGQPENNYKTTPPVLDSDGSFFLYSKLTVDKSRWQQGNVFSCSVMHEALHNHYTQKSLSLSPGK

| Log2 FC (log2 fold change) [1] | fold decrease in IL-2 release from CD4+ T cells (72 h) [2] | Substance |
| --- | --- | --- |
| 2.33 | – | VISTA-Fc fusion protein |
| – | 2 fold | PSGL-1-Fc fusion protein (Example VIII) (from UniProt Q14242 18-320) |
